Results from PMC4038265.
One block for each substance: values may come before it.

Assays:
Test in all cases: SEC + other: dynamic light scattering
[1] = biological target: G. stearothermophilus GerD D118A (Geobacillus stearothermophilus)
[2] = biological target: G. stearothermophilus GerD F86P (Geobacillus stearothermophilus)
[3] = biological target: G. stearothermophilus GerD M36P (Geobacillus stearothermophilus)
[4] = biological target: G. stearothermophilus GerD M111P (Geobacillus stearothermophilus)
[5] = biological target: G. stearothermophilus GerD M138P (Geobacillus stearothermophilus)
[6] = biological target: G. stearothermophilus GerD Q122A (Geobacillus stearothermophilus)
[7] = biological target: G. stearothermophilus GerD R148A (Geobacillus stearothermophilus)
[8] = biological target: G. stearothermophilus GerD ΔH01-02 (Geobacillus stearothermophilus)
[9] = biological target: G. stearothermophilus GerD ΔH5-8 (Geobacillus stearothermophilus)
[10] = biological target: G. stearothermophilus GerD ΔH6-8 (Geobacillus stearothermophilus)

Substance: G. stearothermophilus GerD F86P (from UniProt A0ACH1E844 1-195) (natural protein)
- stoichiometry N [2]: 3

Substance: G. stearothermophilus GerD M111P (from UniProt A0ACH1E844 1-195) (natural protein)
- stoichiometry N [4]: 3

Substance: G. stearothermophilus GerD M138P (from UniProt A0ACH1E844 1-195) (natural protein)
- stoichiometry N [5]: 3

Substance: G. stearothermophilus GerD R148A (from UniProt A0ACH1E844 1-195) (natural protein)
- stoichiometry N [7]: 3

Substance: G. stearothermophilus GerD ΔH01-02 (from UniProt A0ACH1E844 60-180) (domain or fragment)
- stoichiometry N [8]: 3

Substance: G. stearothermophilus GerD ΔH6-8 (from UniProt A0ACH1E844 1-133) (domain or fragment)
- stoichiometry N [10]: 3

Now from value to substance:

- stoichiometry N [1]: 3
Substance: G. stearothermophilus GerD D118A (from UniProt A0ACH1E844 1-195) (natural protein)

- stoichiometry N [3]: 3
Substance: G. stearothermophilus GerD M36P (from UniProt A0ACH1E844 1-195) (natural protein)

- stoichiometry N [6]: 3
Substance: G. stearothermophilus GerD Q122A (from UniProt A0ACH1E844 1-195) (natural protein)

- stoichiometry N [9]: 3
Substance: G. stearothermophilus GerD ΔH5-8 (from UniProt A0ACH1E844 1-120) (domain or fragment)
